Patent US20210170043A1 (Novartis, published 2021)

T1: DC-SIGN Carbohydrate Recognition Domain (CRD), His-tagged (human, UniProt Q9NNX6 250-404)
T1 construct: also called DC-SIGN CRD; not shown: His tag used for capture
T1 sequence: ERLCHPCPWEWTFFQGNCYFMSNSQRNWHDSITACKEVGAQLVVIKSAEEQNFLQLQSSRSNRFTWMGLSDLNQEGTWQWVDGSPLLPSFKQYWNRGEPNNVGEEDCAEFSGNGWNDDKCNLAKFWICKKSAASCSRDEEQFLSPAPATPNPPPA

T2: human DC-SIGN (full length, expressed on cells) (human, UniProt Q9NNX6 1-404)
T2 construct: Also used for DC-SIGN on human monocyte-derived cells and on cells of human DC-SIGN transgenic mice in the functional rows; also called CD209; human DC-SIGN CHO
T2 sequence: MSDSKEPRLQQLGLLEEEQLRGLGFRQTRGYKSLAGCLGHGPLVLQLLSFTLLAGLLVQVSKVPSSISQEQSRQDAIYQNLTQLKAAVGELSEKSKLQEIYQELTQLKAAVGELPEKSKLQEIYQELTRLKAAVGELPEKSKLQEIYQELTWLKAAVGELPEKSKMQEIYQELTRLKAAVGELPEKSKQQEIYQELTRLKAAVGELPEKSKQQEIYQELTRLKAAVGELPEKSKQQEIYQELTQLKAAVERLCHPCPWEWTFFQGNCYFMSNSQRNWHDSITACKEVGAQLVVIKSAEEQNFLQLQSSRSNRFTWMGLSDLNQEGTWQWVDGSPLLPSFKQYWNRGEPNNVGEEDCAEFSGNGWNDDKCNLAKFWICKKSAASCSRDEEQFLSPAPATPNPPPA

T3: cynomolgus monkey DC-SIGN (full length, expressed on CHO cells) (cynomolgus monkey, UniProt Q95J96 1-403 (rhesus entry))
T3 construct: also called cyno DC-SIGN; cyno DC-SIGN CHO
T3 sequence: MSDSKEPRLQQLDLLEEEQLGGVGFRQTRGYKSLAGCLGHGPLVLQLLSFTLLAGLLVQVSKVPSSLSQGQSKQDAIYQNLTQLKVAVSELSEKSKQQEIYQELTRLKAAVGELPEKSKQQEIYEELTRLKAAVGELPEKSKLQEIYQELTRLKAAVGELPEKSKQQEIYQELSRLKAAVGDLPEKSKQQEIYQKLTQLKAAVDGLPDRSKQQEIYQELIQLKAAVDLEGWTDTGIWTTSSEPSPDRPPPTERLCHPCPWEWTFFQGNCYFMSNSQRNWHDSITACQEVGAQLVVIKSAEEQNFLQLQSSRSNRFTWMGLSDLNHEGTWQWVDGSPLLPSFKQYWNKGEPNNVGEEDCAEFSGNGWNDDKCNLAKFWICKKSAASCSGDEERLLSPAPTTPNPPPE


Columns and labels:
[1] = biological target: T1, DC-SIGN Carbohydrate Recognition Domain …; experiment: SPR (Biacore 8K), His-tagged DC-SIGN CRD captured at high density on chip, antibody as analyte
[2] = biological target: T2, human DC-SIGN (full length, expressed …); experiment: flow cytometry, IgG titrated on human DC-SIGN CHO cells
[3] = biological target: T1, DC-SIGN Carbohydrate Recognition Domain …; experiment: SPR (Biacore 8K), antibody captured on anti-human IgG Fc chip, DC-SIGN CRD as analyte
[4] = biological target: T3, cynomolgus monkey DC-SIGN (full length, …); experiment: flow cytometry, IgG titrated on cyno DC-SIGN CHO cells
[5] = biological target: T2, human DC-SIGN (full length, expressed …); experiment: flow cytometry, IgG titrated on human DC-SIGN K562 cells

Row | Kd [1] | EC50 [2] | Kd [3] | EC50 [4] | EC50 [5] | Binder
1 | 0.8 nM | 0.1 µg/mL | 955 nM | 0.02 µg/mL |  | 960K03 Parental (antibody, V domains shown) VH: QVTLRESGPALVKPTQTLTLTCTFSGFSLSTGGMCVSWIRQPPGKALEWLALIDWDDDKYYSTSLKTRLTISKDTSKNQLVLTMTNMDPVDTATYYCARAHSGSYFDFWGQGTLVTVSS VL: DIQMTQSPSTLSASVGDRVTITCRASQRISNWLAWYQQKPGKAPKLLIYKASSLESGVPSRFSGSGSGTEFTLTISSLQPDDFATYYCQQFNSYWTFGQGTKVEIKR
2 |  | 0.23 µg/mL |  | 0.32 µg/mL | 0.28 µg/mL | 2B2 Chimeric (antibody, V domains shown, Murine variable regions on human constant regions) VH: EVQLQQSGAELVRPGSSVKMSCKTSGYTFTNYGINWVKQRPGQGLEWIGYIYIGNDYTEYNERFKGKATLTSDTSSSTAHIQLNSLTSEDSAIYFCARLYYGSSLYSYAMDYWGQGTSVTVSS VL: DIVMTQAAPSVSVTPGESVSISCRSSKSLLHSSGNTYLYWFLQRPGQSPQLLISRMSNLASGVPDRFSGSGSGTAFTLRISRVEAEDVGVYYCMQHLEYPYTFGGGTKLELKR
3 | 0.5 nM |  | 32 nM |  |  | 2B2 (parental antibody) (antibody, V domains shown, also called antibody 2B2) VH: EVQLQQSGAELVRPGSSVKMSCKTSGYTFTNYGINWVKQRPGQGLEWIGYIYIGNDYTEYNERFKGKATLTSDTSSSTAHIQLNSLTSEDSAIYFCARLYYGSSLYSYAMDYWGQGTSVTVSS VL: DIVMTQAAPSVSVTPGESVSISCRSSKSLLHSSGNTYLYWFLQRPGQSPQLLISRMSNLASGVPDRFSGSGSGTAFTLRISRVEAEDVGVYYCMQHLEYPYTFGGGTKLELK
4 | 10 nM | 0.1 µg/mL | 830 nM | 0.08 µg/mL | 0.25 µg/mL | 914M09 Parental (antibody, human IgG1, kappa, V domains shown) VH: QVQLQESGPGLVKPSETLSLTCAVSGGSISSYYWNLIRQPAGKGLEWIGRIYTSGSTNYNPSLKSRVTMSVDTSKNQFSLKLSSVTAADTAVYYCARDSGGFYYYYGMDVWGQGTTVTVSS VL: DIQLTQSPSFLSASVGDRVTITCRASQGISSYLAWYQQKPGKAPKLLIYAASTLQGGVPSRFSGSGSGTEFTLTISSLQPEDFATYHCQQLNSYPWTFGQGTKVEIKR
5 |  | 0.06 µg/mL |  | 0.04 µg/mL | 0.27 µg/mL | 2B2 Hz (antibody, V domains shown, also called humanized 2B2) VH: QVQLVQSGAEVKKPGASVKVSCKASGYTFTNYGINWVRQAPGQRLEWMGYIYIGNDYTEYNERFKGRVTITSDTSASTAYMELSSLRSEDTAVYYCARLYYGSSLYSYAMDYWGQGTTVTVSS VL: DIVMTQSPLSLPVTPGEPASISCRSSKSLLHSSGNTYLYWFLQKPGQSPQLLISRMSNLASGVPDRFSGSGSGTDFTLKISRVEAEDVGVYYCMQHLEYPYTFGGGTKVEIKR
6 | 5.8 nM | 0.26 µg/mL | 523 nM | 0.39 µg/mL | 1.5 µg/mL | 550E03 Parental (antibody, V domains shown, also called 550Ee03) VH: QVTLRESGPALVKPTQTLTLTCTFSGFSLSTSGMSVSWIRQPPGKALEWLALIDWDDDKYYSTSLKTRLTISKDTSKNQVVLTMTNMDPVDTATYYCARMALRHAFDAWGQGTMVTVSS VL: QSVLTQPPSVSGAPGQRVTISCTGSSSNIGAGYDVHWYQQLPGTAPKLLIYVNSNRPSGVPDRFSGSKSGTSASLAITGLQAEDEADYYCQSYDSSLSGWVFGGGTKLTVLG
7 | 180 nM | 0.2 µg/mL | 1260 nM | 11.6 µg/mL |  | 942K11 Parental (antibody, human IgG1, kappa, V domains shown) VH: QVQLQESGPGLVKPSETLSLTCTVSGGSISSYYWTWIRQPAGKGLEWIGRVFTSESTNYNPSLKNRVTMSVDTSKNQFSLRLNSVTAADTAMYYCARDRGTYLGGFDPWGQGTLVTVSS VL: not shown
8 | 3.8 nM | 0.06 µg/mL | 395 nM | 0.02 µg/mL | 0.04 µg/mL | 952P16 Parental (antibody, V domains shown) VH: QVTLRESGPALVKPTQTLTLTCTFSGFSLSTSGVSVSWIRQPPGKALEWLALIDWDDDKYYSTSLKTRLTISKDTSKNQVVLTMTNMDPVDTATYYCARTPSGSYGRYFDLWGRGTLVTVSS VL: not shown
9 | 3.7 nM | 0.11 µg/mL | 346 nM | 0.19 µg/mL | 0.26 µg/mL | 952G04 Parental (antibody, V domains shown) VH: QVTLRESGPALVKPTQTLTLTCTFSGFSLSTSGVSVTWIRQPPGKALEWLALIDWDDDKYYSTSLKTRLAISKDTSKNQVVLTMTNMDPVDTATYYCARTPSGSYGRYFDLWGRGTLVTVSS VL: DIQMTQSPSTLSASVGDRVTITCRASQSISTWLAWYQQKPGKAPKLLIYEASSLESGVPSRFSGSGSGTEFTLTISSLQPDDFATYYCQQYNSYWTFGQGTKVEIKR
10 | 1.7 nM | 0.07 µg/mL | 174 nM | 0.08 µg/mL | 0.05 µg/mL | 958N05 Parental (antibody, V domains shown) VH: QVTLRESGPALVKPTQTLTLTCTFSGFSLSTSGISVSWIRQPPGKALEWLALIDWDDDKYYSTSLKTRLTISKDTSKNQVVLTMTNMDPVDTATYYCARTPSGSYGRYFDLWGRGTLVTVSS VL: DIQLTQSPSTLSASVGDRVTITCRASQSISNWLAWYQQKPGKAPKLLIYKASSLESGVPSRFTGSGSGTEFTLTISSLQPDDFATYYCQQYNSYWTFGQGTKVEIKR
11 | 13 nM | 0.12 µg/mL | 999 nM | 0.13 µg/mL |  | 956E02 Parental (antibody, human IgG1, kappa, V domains shown) VH: QVQLVQSGAEVKKPGASVKVSCKASGYTFTGYYINWVRQAPGQGLEWMGWINPNSGDTNYAQKFQGRVTMTRDPSISTAYMELSRLRSDDTAVYYCARENSGYGKLFDYWGQGTLVTVSS VL: not shown
12 | 16 nM | 0.21 µg/mL | 1950 nM | 0.77 µg/mL | 1.72 µg/mL | 906C18 Parental (antibody, V domains shown) VH: EVQLVESGGGLVQPGGSLRLSCAASGFTFNNYWMNWVRQAPGKGLEWVANIRQDGSEKYYVDSVKGRFTISRDNAKNSLFLQMNSLRAEDTAVYYCARERAYCSTTSCPDYSNDYWGQGTLVTVSS VL: EIVMTQSPATLSVSPGERATLSCRASQTINNNLAWFQQKPGQTPRLLIYGASTGATGIPARFSGSGSGTEFTLTISSLQSEDFAVYYCQQYNNWPRGLTFGGGTKVEIKR
